The text below walks through data of article PMC9769477 (2022).

In the experiment the target is 9G1. The experiment can be described thus: BLI.

B1: CVA16/SZ05 viral particles (complex)
chain 1: GDPIADMIDQTVNNQVNRSLTALQVLPTAANTEASSHRLGTGVVPALQAAETGASSNASDKNLIETRCVLNHHSTQETAIGNFFSRAGLVSIITMPTTGTQNTDGYVNWDIDLMGYAQLRRKCELFTYMRFDAEFTFVVAKPNGELVPQLLQYMYVPPGAPKPTSRDSFAWQTATNPSVFVKMTDPPAQVSVPFMSPASAYQWFYDGYPTFGEHLQANDLDYGQCPNNMMGTFSIRTVGTEKSPHSITLRVYMRIKHVRAWIPRPLRNQPYLFKTNPNYKGNDIKCTSTSRDKITTL
chain 2: SPSAEACGYSDRVAQLTIGNSTITTQEAANIVIAYGEWPEYCPDTDATAVDKPTRPDVSVNRFFTLDTKSWAKDSKGWYWKFPDVLTEVGVFGQNAQFHYLYRSGFCVHVQCNASKFHQGALLVAVLPEYVLGTIAGGTGNENSHPPYATTQPGQVGAVLTHPYVLDAGIPLSQLTVCPHQWINLRTNNCATIIVPYMNTVPFDSALNHCNFGLLVIPVVPLDFNAGATSEIPITVTIAPMCAEFAGLRQAVKQ
chain 3: GIPTELKPGTNQFLTTDDGVSAPILPGFHPTPPIHIPGEVRNLLEICRVETILEVNNLKTNETTPMQRLCFPVSVQSKTGELCAAFRADPGRDGPWQSTILGQLCRYYTQWSGSLEVTFMFAGSFMATGKMLIAYTPPGGSVPADRITAMLGTHVIWDFGLQSSVTLVVPWISNTHYRAHARAGYFDYYTTGIITIWYQTNYVVPIGAPTTAYIVALAAAQDNFTMKLCKDTEDIEQTANIQ
chain 4: GSQVSTQRSGSHENSNSASEGSTINYTTINYYKDAYAASAGRQDMSQDPKRFTDPVMDVIHEMAPPLK
modifications: biotin (EZ-Link Sulfo-NHS-LC-LC-Biotin labelling of the particles before BLI; sites not stated) | biotin (EZ-Link Sulfo-NHS-LC-LC-Biotin labelling of the particles before BLI; sites not stated) | biotin (EZ-Link Sulfo-NHS-LC-LC-Biotin labelling of the particles before BLI; sites not stated) | biotin (EZ-Link Sulfo-NHS-LC-LC-Biotin labelling of the particles before BLI; sites not stated)
Regarding B1, the affinity, expressed as Kd, was 0.46 nM and the koff is 0.000631 s⁻¹.

A word on the Kd: it is the equilibrium constant for the complex coming apart. High values mean a looser complex, low ones a tighter complex. The koff is the first-order rate constant of dissociation.
